For the assay, the target named is CD20 (human) (UniProt P11836). Put plainly: FACS on Ramos, Daudi, Raji and BJAB B lymphoma cells; range over four cell lines.
UniProt P11836, sequence (P11836 whole entry): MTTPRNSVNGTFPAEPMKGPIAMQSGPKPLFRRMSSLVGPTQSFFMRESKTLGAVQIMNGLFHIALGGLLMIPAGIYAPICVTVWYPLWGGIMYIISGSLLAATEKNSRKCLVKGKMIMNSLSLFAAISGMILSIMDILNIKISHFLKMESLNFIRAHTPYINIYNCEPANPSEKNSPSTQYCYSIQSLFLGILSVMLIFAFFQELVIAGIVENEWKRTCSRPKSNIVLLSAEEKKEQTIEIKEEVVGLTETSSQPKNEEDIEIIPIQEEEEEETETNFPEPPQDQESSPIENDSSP

For the substance “RITUXAN (rituximab), monoclonal antibody specific for CD20”, the mean fluorescence shift is 5 to 15 units.

The values above are taken from patent US20080044421A1.
